For one substance, decrease in transwell migration of HUAEC results are on record in patent US20060153840A1.

This assay deals with UNC5H2 on human umbilical artery endothelial cells (HUAEC) (human) (UniProt Q8IZJ1). As to the kind of experiment: cell-based or functional assay.
UniProt Q8IZJ1, sequence (Q8IZJ1 other isoform, or with tags, fused parts or gaps limits assumed): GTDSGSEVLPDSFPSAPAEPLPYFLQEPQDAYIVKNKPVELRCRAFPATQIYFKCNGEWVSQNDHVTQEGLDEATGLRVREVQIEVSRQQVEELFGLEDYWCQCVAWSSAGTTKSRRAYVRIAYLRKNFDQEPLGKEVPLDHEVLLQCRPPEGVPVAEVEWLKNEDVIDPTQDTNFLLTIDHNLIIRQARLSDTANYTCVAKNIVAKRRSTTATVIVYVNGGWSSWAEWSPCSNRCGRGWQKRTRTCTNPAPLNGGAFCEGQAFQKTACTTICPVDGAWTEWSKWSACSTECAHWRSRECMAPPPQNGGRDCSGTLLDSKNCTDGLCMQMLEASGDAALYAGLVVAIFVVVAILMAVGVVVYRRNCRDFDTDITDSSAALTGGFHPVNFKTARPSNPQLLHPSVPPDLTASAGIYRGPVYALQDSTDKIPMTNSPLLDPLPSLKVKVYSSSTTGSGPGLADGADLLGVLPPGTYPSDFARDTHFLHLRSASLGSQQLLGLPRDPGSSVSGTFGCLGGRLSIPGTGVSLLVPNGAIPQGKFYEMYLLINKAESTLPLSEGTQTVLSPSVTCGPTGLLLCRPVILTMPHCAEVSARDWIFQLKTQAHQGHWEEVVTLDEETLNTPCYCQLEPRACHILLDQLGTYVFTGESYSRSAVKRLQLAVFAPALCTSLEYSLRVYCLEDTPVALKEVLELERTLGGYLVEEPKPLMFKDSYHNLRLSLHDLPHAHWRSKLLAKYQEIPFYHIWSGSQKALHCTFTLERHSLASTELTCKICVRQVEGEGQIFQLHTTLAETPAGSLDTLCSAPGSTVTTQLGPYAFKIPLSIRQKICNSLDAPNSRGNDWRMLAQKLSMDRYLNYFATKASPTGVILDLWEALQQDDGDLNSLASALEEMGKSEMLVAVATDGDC

Substance “Netrin-1 secreted by stably transfected 293 cells (ligand)” displayed a decrease in transwell migration of HUAEC of 40%.
